The labels stand for the following.
B1: Azoarcus group I ribozyme (parent)
chain: GUGCCUUGCGCCGGGAAACCACGCAAGGGAUGGUGUCAAAUUCGGCGAAACCUAAGCGCCCGCCCGGGCGUAUGGCAACGCCGAGCCAAGCUUCGGCGCCUGCGCCGAUGAAGGUGUAGAGACUAGACGGCACCCACCUAAGGCAAACGCUAUGGUGAAGGCAUAGUCCAGGGAGUGGCGAAAGUCACACAAACCGG

Variants of B1 are the subject of the data set. Description: reverse-splicing fitness (ratio to wild type); higher = more active; in vitro selection; Mg2+ level not given. In short, it runs like this: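 An in vitro group I ribozyme library with randomized positions was T7-transcribed and gel-purified. In triplicate, 10 pmol RNA in EPPS pH 7.5 was reacted with 50 pmoles of a 30-nt RNA substrate for 1 h at 37 °C across several added MgCl2 levels (1–48 mM), then stopped with EDTA. Products were reverse transcribed from a substrate-complementary primer, PCR-amplified and sequenced (HiSeq 4000). Fitness is a variant's read proportion after selection over that before, normalised to wild type.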
For GUGCCUUGCGCCGGGAAACCACGCAAGGGAUGGUGUCAAAUUCGGCGAAACCUAAGCGCCCGCCCGGGCGUAUGGCAACGCGGAGCCAAGCUUCGGCGCCUGCGCCGAUGCAGGUGUAGGGACUAGACGGCACCCACCUAAGGCGAACGCUAUGGUGAAGGCAUAGUCCAGGGAGUGGCGAAAGUCACACAAACCGG [C82G A111C A120G A145G], the reverse-splicing fitness worked out at 0.014.

Regarding GUGCCUUGCGCCGGGAAACCACGCAAGGGAUGGUGUCAAAUUCGGCGAAACCUAAGCGCCCGCCCGGGCGUAUGGCAACGCGGAGCCAAGCUUCGGCGCCUGCGCCGAUGCAGGUGUAGGGACUAGACGGCACCCACCUAAGGCCAACGCUAUGGUGAAGGCAUAGUCUAGGGAGGGGCGAAAGUCACACAAACCGG [C82G A111C A120G A145C C169U U176G], the reverse-splicing fitness amounted to 0.00406.

In the case of GUGCCUUGCGCCGGGAAACCACGCAAGGGAUGGUGUCAAAUUCGGCGAAACCUAAGCGCCCGCCCGGGCGUAUGGCAACGCGGAGCCAAGCUUCGGCGCCUGCGCCGAUGCAGGUGUAGGGACUAGACGGCACCCACCUAAGGCCAACGCUAUGGUGAAGGCAUAGUCUAGGGAGCGGCGAAAGUCACACAAACCGG [C82G A111C A120G A145C C169U U176C], the reverse-splicing fitness came to 0.0154.

As for GUGCCUUGCGCCGGGAAACCACGCAAGGGAUGGUGUCAAAUUCGGCGAAACCUAAGCGCCCGCCCGGGCGUAUGGCAACGCGGAGCCAAGCUUCGGCGCCUGCGCCGAUGCAGGUGUAGGGACUAGACGGCACCCACCUAAGGCCAACGCUAUGGUGAAGGCAUAGUCUAGGGAGAGGCGAAAGUCACACAAACCGG [C82G A111C A120G A145C C169U U176A], the reverse-splicing fitness was 0.0164.

Take GUGCCUUGCGCCGGGAAACCACGCAAGGGAUGGUGUCAAAUUCGGCGAAACCUAAGCGCCCGCCCGGGCGUAUGGCAACGCGGAGCCAAGCUUCGGCGCCUGCGCCGAUGCAGGUGUAGGGACUAGACGGCACCCACCUAAGGCGAACGAUAUGGUGAAGGCAUAGUCCAGGGAGUGGCGAAAGUCACACAAACCGG [C82G A111C A120G A145G C150A]: the reverse-splicing fitness came out at 0.00945.

With GUGCCUUGCGCCGGGAAACCACGCAAGGGAUGGUGUCAAAUUCGGCGAAACCUAAGCGCCCGCCCGGGCGUAUGGCAACGCGGAGCCAAGCUUCGGCGCCUGCGCCGAUGCAGGUGUAGGGACUAGACGGCACCCACCUAAGGCGAACGAUAUGGUGAAGGCAUAGUCGAGGGAGCGGCGAAAGUCACACAAACCGG [C82G A111C A120G A145G C150A C169G U176C], the reverse-splicing fitness was found to be 0.0267.

As for GUGCCUUGCGCCGGGAAACCACGCAAGGGAUGGUGUCAAAUUCGGCGAAACCUAAGCGCCCGCCCGGGCGUAUGGCAACGCGGAGCCAAGCUUCGGCGCCUGCGCCGAUGCAGGUGUAGGGACUAGACGGCACCCACCUAAGGCGAACGAUAUGGUGAAGGCAUAGUCGAGGGAGAGGCGAAAGUCACACAAACCGG [C82G A111C A120G A145G C150A C169G U176A], the reverse-splicing fitness was 0.0158.

As to GUGCCUUGCGCCGGGAAACCACGCAAGGGAUGGUGUCAAAUUCGGCGAAACCUAAGCGCCCGCCCGGGCGUAUGGCAACGCGGAGCCAAGCUUCGGCGCCUGCGCCGAUGCAGGUGUAGGGACUAGACGGCACCCACCUAAGGCCAACGUUAUGGUGAAGGCAUAGUCUAGGGAGAGGCGAAAGUCACACAAACCGG [C82G A111C A120G A145C C150U C169U U176A], the reverse-splicing fitness amounted to 0.0147.

Turning to GUGCCUUGCGCCGGGAAACCACGCAAGGGAUGGUGUCAAAUUCGGCGAAACCUAAGCGCCCGCCCGGGCGUAUGGCAACGCGGAGCCAAGCUUCGGCGCCUGCGCCGAUGCAGGUGUAGGGACUAGACGGCACCCACCUAAGGCCAACGUUAUGGUGAAGGCAUAGUCUAGGGAGCGGCGAAAGUCACACAAACCGG [C82G A111C A120G A145C C150U C169U U176C], the reverse-splicing fitness is 0.0119.

Take GUGCCUUGCGCCGGGAAACCACGCAAGGGAUGGUGUCAAAUUCGGCGAAACCUAAGCGCCCGCCCGGGCGUAUGGCAACGCGGAGCCAAGCUUCGGCGCCUGCGCCGAUGCAGGUGUAGGGACUAGACGGCACCCACCUAAGGCCAACGUUAUGGUGAAGGCAUAGUCUAGGGAGGGGCGAAAGUCACACAAACCGG [C82G A111C A120G A145C C150U C169U U176G]: the reverse-splicing fitness amounted to 0.0048.

For the variant GUGCCUUGCGCCGGGAAACCACGCAAGGGAUGGUGUCAAAUUCGGCGAAACCUAAGCGCCCGCCCGGGCGUAUGGCAACGCGGAGCCAAGCUUCGGCGCCUGCGCCGAUGCAGGUGUAGGGACUAGACGGCACCCACCUAAGGCCAACGCUAUGGUGAAGGCAUAGUCAAGGGAGUGGCGAAAGUCACACAAACCGG [C82G A111C A120G A145C C169A], the reverse-splicing fitness worked out at 0.00807.

As for GUGCCUUGCGCCGGGAAACCACGCAAGGGAUGGUGUCAAAUUCGGCGAAACCUAAGCGCCCGCCCGGGCGUAUGGCAACGCGGAGCCAAGCUUCGGCGCCUGCGCCGAUGCAGGUGUAGGGACUAGACGGCACCCACCUAAGGCCAACGCUAUGGUGAAGGCAUAGUCGAGGGAGUGGCGAAAGUCACACAAACCGG [C82G A111C A120G A145C C169G], the reverse-splicing fitness turned out to be 0.0134.

Take GUGCCUUGCGCCGGGAAACCACGCAAGGGAUGGUGUCAAAUUCGGCGAAACCUAAGCGCCCGCCCGGGCGUAUGGCAACGCGGAGCCAAGCUUCGGCGCCUGCGCCGAUGCAGGUGUAGGGACUAGACGGCACCCACCUAAGGCCAACGCUAUGGUGAAGGCAUAGUCUAGGGAGUGGCGAAAGUCACACAAACCGG [C82G A111C A120G A145C C169U]: the reverse-splicing fitness came to 0.00967.

On to GUGCCUUGCGCCGGGAAACCACGCAAGGGAUGGUGUCAAAUUCGGCGAAACCUAAGCGCCCGCCCGGGCGUAUGGCAACGCGGAGCCAAGCUUCGGCGCCUGCGCCGAUGCAGGUGUAGGGACUAGACGGCACCCACCUAAGGCCAACGCUAUGGUGAAGGCAUAGUCCAGGGAGCGGCGAAAGUCACACAAACCGG [C82G A111C A120G A145C U176C], for which the reverse-splicing fitness worked out at 0.0166.

As for GUGCCUUGCGCCGGGAAACCACGCAAGGGAUGGUGUCAAAUUCGGCGAAACCUAAGCGCCCGCCCGGGCGUAUGGCAACGCGGAGCCAAGCUUCGGCGCCUGCGCCGAUGCAGGUGUAGGGACUAGACGGCACCCACCUAAGGCCAACGCUAUGGUGAAGGCAUAGUCCAGGGAGGGGCGAAAGUCACACAAACCGG [C82G A111C A120G A145C U176G], the reverse-splicing fitness is 0.00507.

The values above are taken from the RNAGym collection of RNA variant scans (doi:10.1093/molbev/msab373).
